Changes are numbered by the printed parent chain.
T1: CD70+ renal carcinoma 786-O cells (Homo sapiens, UniProt P32970)
T1 construct: natively expressing CD70+ human cancer cell line 786-0 cells; endogenous in cells; host or cells: 786-O (ATCC CRL-1932), A-498 (HTB-44), ACHN (CRL-1611), Caki-1 (HTB-46), Caki-2 (HTB-47)
T1 sequence (P32970 1-193): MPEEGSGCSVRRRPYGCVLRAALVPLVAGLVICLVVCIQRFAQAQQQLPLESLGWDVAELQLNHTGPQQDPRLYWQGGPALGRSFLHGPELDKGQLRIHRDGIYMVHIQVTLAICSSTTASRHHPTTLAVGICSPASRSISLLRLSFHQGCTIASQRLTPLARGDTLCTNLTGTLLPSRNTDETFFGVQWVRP

T2: CD70 on Raji cells (Homo sapiens, UniProt P32970)
T2 construct: endogenous in cells; host or cells: Daudi (ATCC CCL-213), HuT 78 (TIB-161), Raji (CCL-86), Granta 519 (DSMZ 342)
T2 sequence (P32970 1-193): T1 sequence (P32970 1-193)

B1: anti-CD70 human monoclonal antibody 69A7 (antibody, V domains shown)
VH: QVQLQESGPGLVKPSETLSLTCTVSGGSVSSDYYYWSWIRQPPGKGLEWLGYIYYSGSTNYNPSLKSRVTISVDTSKNQFSLKLRSVTTADTAVYYCARGDGDYGGNCFDYWGQGTLVTVSS
VL: EIVLTQSPATLSLSPGERATLSCRASQSVSSYLAWYQQKPGQAPRLLIFDASNRATGIPARFSGSGSGTDFTLTISSLEPEDFAVYYCQQRSNWPLTFGGGTKVEIK
notes: Human IgG from hybridoma; also called HuMAb 69A7; FITC-conjugated 69A7
B2: 2H5 NF: 2H5 HuMAb lacking fucosyl residues, expressed in CHO cell line Ms704-PF (antibody, V domains shown)
VH: QVQLVESGGGVVQPGRSLRLSCAASGFTFSSYIMHWVRQAPGKGLEWVAVISYDGRNKYYADSVKGRFTISRDNSKNTLYLQMNSLRAEDTAVYYCARDTDGYDFDYWGQGTLVTVSS
VL: B1 VL with F49Y, S92T

Tests used:
[1] = target: T1, CD70+ renal carcinoma 786-O cells; experiment: Blocking of mouse anti-CD70 antibody BU-69 binding; settings: BU-69 1 μg/ml; 69A7 1, 5 or 10 μg/ml
Experimental: In this experiment, the HuMAb anti-CD70 antibody 69A7 was tested for its ability to block binding of a known mouse anti-CD70 antibody to CD70+renal carcinoma 786-O cells. 786-O cells were incubated with the mouse anti-CD70 antibody BU-69 (Ancell, Bayport, Minn.) at 1 μg/ml and the HuMAb 69A7 at 1, 5 or 10 μg/ml for 20 minutes on ice. IgG1 and IgG2 isotype control antibodies were used as negative controls. The cells were washed twice and binding was detected with a FITC-labeled anti-human IgG Ab. Flow cytometric analyses were performed using a FACSCalibur flow cytometry (Becton Dickinson, San Jose, Calif.).

[2] = target: T2, CD70 on Raji cells; experiment: Competition FACS assay with FITC-conjugated 69A7 on Raji cells; type: binding; settings: naked antibody 10 μg/ml, then FITC-conjugated 69A7 10 μg/ml
Experimental: A competition FACS assay was carried out to elucidate the binding specificity of 69A7 against 2H5. Raji cells were incubated with either naked 69A7, 2H5, an isotype control antibody or no antibody at a concentration of 10 μg/ml. After wash, the cells were incubated with FITC-conjugated 69A7 at a concentration of 10 μg/ml. The cells were washed and binding was detected with a FITC-labeled anti-human IgG Ab. Flow cytometric analyses were performed using a FACSCalibur flow cytometry (Becton Dickinson, San Jose, Calif.).

[3] = system: SU-DHL-6 cells; experiment: ADCC fluorescence cytotoxicity assay, SU-DHL-6; type: cell-based, human; settings: target to effector ratio 1:50
Experimental: In this example, a defucosylated and non-defucosylated anti-CD70 monoclonal antibody was tested for the ability to kill CD70+cells in the presence of effector cells via antibody dependent cellular cytotoxicity (ADCC) in a fluorescence cytotoxicity assay
Human Anti-CD70 monoclonal antibody 2H5 was defucosylated as described above. Human effector cells were prepared from whole blood as follows. Human peripheral blood mononuclear cells were purified from heparinized whole blood by standard Ficoll-paque separation. The cells were resuspended in RPMI1640 media containing 10% FBS (culture media) and 200 U/ml of human IL-2 and incubated overnight at 37° C. The following day, the cells were collected and washed once in culture media and resuspended at 2×10^7 cells/ml. […]
The CD70+ cell lines ARH-77 (human B lymphoblast leukemia; ATCC Accession No. CRL-1621), MEC-1 (human chronic B cell leukemia; DSMZ Accession No. ACC 497), SU-DHL-6 (human B cell lymphoma, DSMZ Accession No. Acc572), IM-9 (human B lymphoblast; ATCC Accession No. CCL-159) and HuT 78 (human cutaneous lymphocyte lymphoma; ATCC Accession No. TIB-161), were tested for antibody specific ADCC to the defucosylated and non-defucosylated human anti-CD70 monoclonal antibody 2H5 using the Delfia fluorescence emission analysis as follows. […]

[4] = system: CD70 costimulation of human CD3+ T cells; experiment: CD70 co-stimulated human T cell proliferation and IFN-γ secretion; type: cell-based; settings: CHO-S/mCD32/CD70 cells + anti-hCD3, 3 days
Experimental: In this experiment, the HuMAb anti-CD70 antibody 2H5 was tested for inhibition of inflammatory responses. CHO-S cells stably transfected with mouse CD32 (CHO-S/mCD32 cells) were transiently transfected with a full length human CD70 construct (CHO-S/mCD32/CD70 cells). Surface expression was confirmed by flow cytometry using 2A5 and PE conjugated anti-human IgG secondary Ab (data not shown). RosetteSep® Human T Cell Enrichment Kit (Cat# 15061; StemCell Technologies Inc) purified human peripheral blood CD3^+ T cells were stimulated in vitro at 1×10^6/well with 1×10^5 CHO-S/mCD32 or CHO-S/mCD32/CD70 cells/well, 1μg/ml anti-hCD3 (clone OKT3; BD Bioscience) and serial dilutions of either the HuMAb 2H5 or non-fucosylated 2H5 (2H5 NF) in triplicate wells of a 96 well plate. After 3 days supernatant aliquots were collected and interferon-gamma (INF-γ) secretion was measured by a quantitative ELISA kit (BD Biosciences). The plates were pulsed with 1 μCi/ml of ^3H-thymidine, incubated for 8 hours, cells were harvested and ^3H-thymidine incorporation was read on a Trilux® 1450 Microbeta Counter (Wallac, Inc.). An IgG1 isotype control antibody was used as a negative control. […] Data also show 2H5 inhibition is specific to CD70 costimulation as 2H5 had no effect on anti-CD3^+ CHO-S/mCD32 mediated proliferation. […]

Row | Molecule | blocking of mouse anti-CD70 antibody BU-69 binding [1] | blocking of FITC-labeled 69A7 binding [2] | ADCC, % specific lysis of SU-DHL-6 [3] | CD70 co-stimulated INF-γ secretion [4] | CD70 co-stimulated proliferation [4]
1 | B1 | blocks binding | blocked binding |  |  | 
2 | B2 |  |  | increased percentage of specific lysis | completely inhibited | completely inhibited

Source: patent US20100150950A1, “HUMAN ANTIBODIES THAT BIND CD70 AND USES THEREOF” (Medarex, Inc., priority 2006, published 2010)
